Assay results from PMC12631472, “Low-Cost Label-Free Electrochemical Aptasensor for Dual Detection of Dengue and Zika Using Fluorine-Doped Tin Oxide Modified with APTES and Gold Nanoparticles”.

Target: Dengue NS1 (NS1-D) (Dengue virus serotype 4, UniProt P09866 775-1126)
Test: electrochemical impedance spectroscopy; PBS; 1000 ng/mL NS1-D; dRct 114.1 ± 0.2%; LoD 0.21 ng/mL; PBS or commercial human serum; aptamer immobilized at 4 °C in 0.8 M PB, 1.0 M NaCl, 5 mM MgCl2, 1 mM EDTA, pH 7; aptamer:total thiol 1:250; assay temperature not stated
Settings: protein: commercial; chain copies: 2

Dengue NS1 (NS1-D), sequence (P09866 775-1126): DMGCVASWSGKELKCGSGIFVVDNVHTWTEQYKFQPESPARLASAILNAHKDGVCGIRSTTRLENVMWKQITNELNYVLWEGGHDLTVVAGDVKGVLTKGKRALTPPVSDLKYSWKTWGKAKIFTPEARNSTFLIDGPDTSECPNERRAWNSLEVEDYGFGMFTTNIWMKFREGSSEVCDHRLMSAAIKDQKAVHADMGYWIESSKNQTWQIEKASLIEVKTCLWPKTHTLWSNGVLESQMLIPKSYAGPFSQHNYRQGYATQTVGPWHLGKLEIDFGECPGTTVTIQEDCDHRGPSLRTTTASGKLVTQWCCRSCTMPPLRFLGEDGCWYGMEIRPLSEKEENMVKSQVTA

Binder: TTTTAGCGGATCCGATGGGTGGGGGGGTGGGTAGGATCCGCG (structured_DNA, 5'-HS-(CH2)6 thiol) [NS1 DNA aptamer]
- binding result: binds
